Results on two molecules are retold here after PMC9817314, “Detection of human annexin A1 as the novel N-terminal tag for separation and purification handle” (Microbial Cell Factories, 2023).

One assay has as its target S100A11 (Homo sapiens) (UniProt P31949). The settings on record: cited from earlier work.
Assay [1] has as its target T1, human annexin A1 (hanA1) tagged emerald green fluorescent protein (EmGFP) (human, UniProt P04083 3-346).
T1 construct: human annexin A1, amplified from a human brain cDNA library; EmGFP (reporter, detected by fluorescence) follows after the BamH I / Bgl II junction; also called hanA1-EmGFP; HanA1-EmGFP; source: E. coli BL21(DE3); in crude extract (clear lysate), or separated by CaCl2 precipitation and EDTA-Na2 resolubilisation; not shown: EmGFP, C-terminal, kept
T1 sequence (looked up): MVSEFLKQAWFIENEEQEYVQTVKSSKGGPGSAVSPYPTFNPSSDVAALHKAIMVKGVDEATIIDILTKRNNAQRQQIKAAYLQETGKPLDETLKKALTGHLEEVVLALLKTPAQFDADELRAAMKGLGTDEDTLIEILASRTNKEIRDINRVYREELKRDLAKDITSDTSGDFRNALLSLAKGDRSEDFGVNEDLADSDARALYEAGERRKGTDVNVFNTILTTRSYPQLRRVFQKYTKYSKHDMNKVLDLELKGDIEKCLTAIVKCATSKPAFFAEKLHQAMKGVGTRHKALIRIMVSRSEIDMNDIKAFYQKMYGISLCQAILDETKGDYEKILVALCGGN
Nature of the assay: pull-down; MBP-hS100A11 immobilised on amylose resin; hanA1-EmGFP in crude extract (clear lysate) in buffer B (20 mM Tris-HCl pH 8.0, 10% glycerol, 1 mM CaCl2), room temperature, 2 h; washed with buffer B containing 50 mM NaCl; eluted with buffer C (buffer A with 5 mM EDTA-Na2); SDS-PAGE. The note with it: one partner purified.

In the case of “annexin I N-terminal peptide (from UniProt P04083)”, the Kd (in general, the equilibrium constant for the complex coming apart) in the assay with S100A11 (Homo sapiens) is 5 µM.

B1: MBP-hS100A11 (human S100A11 fused to maltose binding protein) (natural protein, UniProt P31949 2-105, looked up)
chain: AKISSPTETERCIESLIAVFQKYAGKDGYNYTLSKTEFLSFMNTELAAFTKNQKDPGVLDRMMKKLDTNSDGQLDFSEFLNLIGGLAMACHDSFLKAVPSQKRT
notes: human S100A11, amplified from a human cDNA library; also called MBP-S100A11; immobilized S100A11; source: E. coli, soluble; immobilised on amylose resin and washed; not shown: MBP, N-terminal, kept
Take B1: the binding result in assay [1] is “binds”.
